Reference: the RNAGym collection of RNA variant scans (doi:10.1093/molbev/msab373)

B1: Azoarcus group I ribozyme (parent)
chain: GUGCCUUGCGCCGGGAAACCACGCAAGGGAUGGUGUCAAAUUCGGCGAAACCUAAGCGCCCGCCCGGGCGUAUGGCAACGCCGAGCCAAGCUUCGGCGCCUGCGCCGAUGAAGGUGUAGAGACUAGACGGCACCCACCUAAGGCAAACGCUAUGGUGAAGGCAUAGUCCAGGGAGUGGCGAAAGUCACACAAACCGG

Variants of: B1
Experiment: reverse-splicing fitness (ratio to wild type); higher = more active; in vitro selection; Mg2+ level not given
Outline: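 An in vitro group I ribozyme library with randomized positions was T7-transcribed and gel-purified. In triplicate, 10 pmol RNA in EPPS pH 7.5 was reacted with 50 pmoles of a 30-nt RNA substrate for 1 h at 37 °C across several added MgCl2 levels (1–48 mM), then stopped with EDTA. Products were reverse transcribed from a substrate-complementary primer, PCR-amplified and sequenced (HiSeq 4000). Fitness is a variant's read proportion after selection over that before, normalised to wild type.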

First: GUGCCUUGCGCCGGGAAACCACGCAAGGGAUGGUGUCAAAUUCGGCGAAACCUAAGCGCCCGCCCGGGCGUAUGGCAACGCCGAGCCAAGCUUCGGCGCCUGCGCCGAUGAAGGUGUAGUGACUAGACGGCACCCACCUAAGGCCAACGUUAUGGUGAAGGCAUAGUCGAGGGAGAGGCGAAAGUCACACAAACCGG [A120U A145C C150U C169G U176A]
Second: GUGCCUUGCGCCGGGAAACCACGCAAGGGAUGGUGUCAAAUUCGGCGAAACCUAAGCGCCCGCCCGGGCGUAUGGCAACGCCGAGCCAAGCUUCGGCGCCUGCGCCGAUGAAGGUGUAGUGACUAGACGGCACCCACCUAAGGCCAACGUUAUGGUGAAGGCAUAGUCGAGGGAGGGGCGAAAGUCACACAAACCGG [A120U A145C C150U C169G U176G]
The reverse-splicing fitness of the first is higher: 0.0156 for the first, 0.00233 for the second.

First: GUGCCUUGCGCCGGGAAACCACGCAAGGGAUGGUGUCAAAUUCGGCGAAACCUAAGCGCCCGCCCGGGCGUAUGGCAACGCCGAGCCAAGCUUCGGCGCCUGCGCCGAUGAAGGUGUAGUGACUAGACGGCACCCACCUAAGGCCAACGUUAUGGUGAAGGCAUAGUCGAGGGAGCGGCGAAAGUCACACAAACCGG [A120U A145C C150U C169G U176C]
Second: GUGCCUUGCGCCGGGAAACCACGCAAGGGAUGGUGUCAAAUUCGGCGAAACCUAAGCGCCCGCCCGGGCGUAUGGCAACGCCGAGCCAAGCUUCGGCGCCUGCGCCGAUGAAGGUGUAGUGACUAGACGGCACCCACCUAAGGCCAACGCUAUGGUGAAGGCAUAGUCGAGGGAGUGGCGAAAGUCACACAAACCGG [A120U A145C C169G]
The reverse-splicing fitness of the first is lower: 0.0135 for the first, 0.231 for the second.

Going from GUGCCUUGCGCCGGGAAACCACGCAAGGGAUGGUGUCAAAUUCGGCGAAACCUAAGCGCCCGCCCGGGCGUAUGGCAACGCCGAGCCAAGCUUCGGCGCCUGCGCCGAUGAAGGUGUAGUGACUAGACGGCACCCACCUAAGGCCAACGCUAUGGUGAAGGCAUAGUCUAGGGAGUGGCGAAAGUCACACAAACCGG [A120U A145C C169U] to GUGCCUUGCGCCGGGAAACCACGCAAGGGAUGGUGUCAAAUUCGGCGAAACCUAAGCGCCCGCCCGGGCGUAUGGCAACGCCGAGCCAAGCUUCGGCGCCUGCGCCGAUGAAGGUGUAGUGACUAGACGGCACCCACCUAAGGCCAACGCUAUGGUGAAGGCAUAGUCAAGGGAGUGGCGAAAGUCACACAAACCGG [A120U A145C C169A], the reverse-splicing fitness falls from 0.263 to 0.0147.

First: GUGCCUUGCGCCGGGAAACCACGCAAGGGAUGGUGUCAAAUUCGGCGAAACCUAAGCGCCCGCCCGGGCGUAUGGCAACGCCGAGCCAAGCUUCGGCGCCUGCGCCGAUGAAGGUGUAGUGACUAGACGGCACCCACCUAAGGCGAACGCUAUGGUGAAGGCAUAGUCCAGGGAGUGGCGAAAGUCACACAAACCGG [A120U A145G]
Second: GUGCCUUGCGCCGGGAAACCACGCAAGGGAUGGUGUCAAAUUCGGCGAAACCUAAGCGCCCGCCCGGGCGUAUGGCAACGCCGAGCCAAGCUUCGGCGCCUGCGCCGAUGAAGGUGUAGUGACUAGACGGCACCCACCUAAGGCCAACGUUAUGGUGAAGGCAUAGUCUAGGGAGAGGCGAAAGUCACACAAACCGG [A120U A145C C150U C169U U176A]
The reverse-splicing fitness of the first is higher: 0.837 for the first, 0.0309 for the second.

Going from GUGCCUUGCGCCGGGAAACCACGCAAGGGAUGGUGUCAAAUUCGGCGAAACCUAAGCGCCCGCCCGGGCGUAUGGCAACGCCGAGCCAAGCUUCGGCGCCUGCGCCGAUGAAGGUGUAGUGACUAGACGGCACCCACCUAAGGCCAACGUUAUGGUGAAGGCAUAGUCUAGGGAGCGGCGAAAGUCACACAAACCGG [A120U A145C C150U C169U U176C] to GUGCCUUGCGCCGGGAAACCACGCAAGGGAUGGUGUCAAAUUCGGCGAAACCUAAGCGCCCGCCCGGGCGUAUGGCAACGCCGAGCCAAGCUUCGGCGCCUGCGCCGAUGAAGGUGUAGUGACUAGACGGCACCCACCUAAGGCCAACGUUAUGGUGAAGGCAUAGUCUAGGGAGGGGCGAAAGUCACACAAACCGG [A120U A145C C150U C169U U176G], the reverse-splicing fitness falls from 0.0258 to 0.00705.

Going from GUGCCUUGCGCCGGGAAACCACGCAAGGGAUGGUGUCAAAUUCGGCGAAACCUAAGCGCCCGCCCGGGCGUAUGGCAACGCCGAGCCAAGCUUCGGCGCCUGCGCCGAUGAAGGUGUAGUGACUAGACGGCACCCACCUAAGGCCAACGCUAUGGUGAAGGCAUAGUCCAGGGAGAGGCGAAAGUCACACAAACCGG [A120U A145C U176A] to GUGCCUUGCGCCGGGAAACCACGCAAGGGAUGGUGUCAAAUUCGGCGAAACCUAAGCGCCCGCCCGGGCGUAUGGCAACGCCGAGCCAAGCUUCGGCGCCUGCGCCGAUGAAGGUGUAGUGACUAGACGGCACCCACCUAAGGCCAACGCUAUGGUGAAGGCAUAGUCCAGGGAGGGGCGAAAGUCACACAAACCGG [A120U A145C U176G], the reverse-splicing fitness falls from 0.634 to 0.36.

Compared with GUGCCUUGCGCCGGGAAACCACGCAAGGGAUGGUGUCAAAUUCGGCGAAACCUAAGCGCCCGCCCGGGCGUAUGGCAACGCCGAGCCAAGCUUCGGCGCCUGCGCCGAUGAAGGUGUAGUGACUAGACGGCACCCACCUAAGGCCAACGCUAUGGUGAAGGCAUAGUCCAGGGAGCGGCGAAAGUCACACAAACCGG [A120U A145C U176C], GUGCCUUGCGCCGGGAAACCACGCAAGGGAUGGUGUCAAAUUCGGCGAAACCUAAGCGCCCGCCCGGGCGUAUGGCAACGCCGAGCCAAGCUUCGGCGCCUGCGCCGAUGAAGGUGUAGUGACUAGACGGCACCCACCUAAGGCCAACGCUAUGGUGAAGGCAUAGUCUAGGGAGAGGCGAAAGUCACACAAACCGG [A120U A145C C169U U176A] is lower in reverse-splicing fitness: 0.452 for the first, 0.0854 for the second.

For GUGCCUUGCGCCGGGAAACCACGCAAGGGAUGGUGUCAAAUUCGGCGAAACCUAAGCGCCCGCCCGGGCGUAUGGCAACGCCGAGCCAAGCUUCGGCGCCUGCGCCGAUGAAGGUGUAGUGACUAGACGGCACCCACCUAAGGCCAACGCUAUGGUGAAGGCAUAGUCUAGGGAGCGGCGAAAGUCACACAAACCGG [A120U A145C C169U U176C], the reverse-splicing fitness was 0.1.
